Among the targets are ETBR H314A (human) (UniProt P24530); ETBR K391A (human) (UniProt P24530); ETBR M296A (human) (UniProt P24530); ETBR M300A (human) (UniProt P24530); ETBR N134A (human) (UniProt P24530); ETBR R318A (human) (UniProt P24530); ETBR S390A (human) (UniProt P24530); ETBR T324A (human) (UniProt P24530); ETBR V325A (human) (UniProt P24530); ETBR V389A (human) (UniProt P24530).
For assay [1], the target named is wild-type ETB receptor, Flag-tagged, expressed in HEK293A cells (human) (UniProt P24530).
Chain of wild-type ETB receptor, Flag-tagged, expressed in HEK293A cells (human) (P24530 27-442): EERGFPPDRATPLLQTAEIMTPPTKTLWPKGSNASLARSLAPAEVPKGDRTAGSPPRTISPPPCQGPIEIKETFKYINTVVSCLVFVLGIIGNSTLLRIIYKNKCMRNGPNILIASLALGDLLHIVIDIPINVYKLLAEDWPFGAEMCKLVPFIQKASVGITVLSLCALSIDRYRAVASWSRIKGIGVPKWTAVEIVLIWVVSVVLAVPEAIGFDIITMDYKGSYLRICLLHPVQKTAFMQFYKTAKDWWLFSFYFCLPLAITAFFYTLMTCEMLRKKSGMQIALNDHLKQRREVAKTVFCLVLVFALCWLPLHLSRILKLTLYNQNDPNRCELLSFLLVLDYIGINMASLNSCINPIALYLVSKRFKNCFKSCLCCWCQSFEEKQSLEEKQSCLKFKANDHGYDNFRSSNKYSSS
The target of assay [2] is Flag-tagged wild-type endothelin type B receptor (ETBR) (human) (UniProt P24530).
Chain of Flag-tagged wild-type endothelin type B receptor (ETBR) (human) (P24530 27-442): as above

Chain of LgBiT-inserted Gαi1, wild type (NanoBiT G-protein construct) (P63096 whole entry): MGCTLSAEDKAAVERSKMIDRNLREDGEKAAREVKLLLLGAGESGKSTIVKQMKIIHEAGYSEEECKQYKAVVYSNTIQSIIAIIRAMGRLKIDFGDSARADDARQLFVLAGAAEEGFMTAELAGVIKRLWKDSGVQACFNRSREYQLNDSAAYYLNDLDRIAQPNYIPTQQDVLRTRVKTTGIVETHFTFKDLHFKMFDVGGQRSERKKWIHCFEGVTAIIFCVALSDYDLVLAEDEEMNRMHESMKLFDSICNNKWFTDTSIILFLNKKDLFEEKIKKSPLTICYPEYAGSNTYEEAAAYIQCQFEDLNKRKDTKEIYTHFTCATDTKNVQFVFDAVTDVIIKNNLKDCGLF
Chain of ETBR H314A (human) (P24530 27-442 H314A): as the sequence (P24530 27-442) above, with H288A counted along it
Chain of ETBR M296A (human) (P24530 27-442 M296A): as the sequence (P24530 27-442) above, with M270A counted along it
Chain of ETBR T324A (human) (P24530 27-442 T324A): as the sequence (P24530 27-442) above, with T298A counted along it
Chain of ETBR V325A (human) (P24530 27-442 V325A): as the sequence (P24530 27-442) above, with V299A counted along it
Chain of ETBR K391A (human) (P24530 27-442 K391A): as the sequence (P24530 27-442) above, with K365A counted along it
Chain of ETBR V389A (human) (P24530 27-442 V389A): as the sequence (P24530 27-442) above, with V363A counted along it
Chain of ETBR R318A (human) (P24530 27-442 R318A): as the sequence (P24530 27-442) above, with R292A counted along it
Chain of ETBR S390A (human) (P24530 27-442 S390A): as the sequence (P24530 27-442) above, with S364A counted along it
Chain of ETBR N134A (human) (P24530 27-442 N134A): as the sequence (P24530 27-442) above, with N108A counted along it
Chain of ETBR M300A (human) (P24530 27-442 M300A): as the sequence (P24530 27-442) above, with M274A counted along it

“Gαi1 G352A (LgBiT-inserted NanoBiT construct) (from UniProt P63096 1-354) (natural protein)” yielded a NanoBiT Gi-protein dissociation assay, ET-1-induced, HEK293A cells, mutant Gαi against wild type in [1] of 50 % decrease.
In turn, “Gαi1 K345A (LgBiT-inserted NanoBiT construct) (from UniProt P63096 1-354) (natural protein)” displayed a NanoBiT Gi-protein dissociation assay, ET-1-induced, HEK293A cells, mutant Gαi against wild type in assay [1] of 50 % decrease.
For the substance “LgBiT-inserted Gαi1 C351A (from UniProt P63096 1-354) (natural protein)”, the Supplementary Table 1f: Emax, %WT, of the ET-1 concentration–response in the NanoBiT Gi-protein dissociation assay, HEK293A cells in [2] is 87 % of WT.
For the substance “LgBiT-inserted Gαi1 D341A (from UniProt P63096 1-354) (natural protein)”, the Supplementary Table 1f: Emax, %WT, of the ET-1 concentration–response in the NanoBiT Gi-protein dissociation assay, HEK293A cells in [2] was 92.1 % of WT.
Regarding “LgBiT-inserted Gαi1 D350A (from UniProt P63096 1-354) (natural protein)”, the Supplementary Table 1f: Emax, %WT, of the ET-1 concentration–response in the NanoBiT Gi-protein dissociation assay, HEK293A cells in assay [2] was 92.2 % of WT.
On the same count and under the same terms, in the case of “LgBiT-inserted Gαi1 F354A (from UniProt P63096 1-354) (natural protein)” it was 87.8 % of WT.
In the case of “LgBiT-inserted Gαi1 G352A (from UniProt P63096 1-354) (natural protein)”, the Supplementary Table 1f: Emax, %WT, of the ET-1 concentration–response in the NanoBiT Gi-protein dissociation assay, HEK293A cells in [2] was 61.8 % of WT.
With “LgBiT-inserted Gαi1 K345A (from UniProt P63096 1-354) (natural protein)”, the Supplementary Table 1f: Emax, %WT, of the ET-1 concentration–response in the NanoBiT Gi-protein dissociation assay, HEK293A cells in assay [2] was 48.9 % of WT.
Same read-out and setting: in the case of “LgBiT-inserted Gαi1 L353A (from UniProt P63096 1-354) (natural protein)” it was 7.8 % of WT; in that of “LgBiT-inserted Gαi1 N347A (from UniProt P63096 1-354) (natural protein)”, 96.5 % of WT.
Take “LgBiT-inserted Gαi1, wild type (NanoBiT G-protein construct) (from UniProt P63096 1-354) (natural protein)”: the Supplementary Table 1e: Emax, %WT, of the ET-1 concentration–response in the NanoBiT Gi-protein dissociation assay, HEK293A cells is 90.2 % of WT with ETBR H314A (human); 91.2 % of WT in the assay with ETBR K391A (human); 88.2 % of WT with ETBR R318A (human); 77.3 % of WT with ETBR T324A (human); 96.3 % of WT with ETBR V389A (human). Further, the Supplementary Table 1d: Emax, %WT, of the ET-1 concentration–response in the NanoBiT Gi-protein dissociation assay, HEK293A cells with ETBR M296A (human) was 36.2 % of WT; with ETBR M300A (human), 46.9 % of WT; with ETBR V325A (human) it was 63.5 % of WT. Moreover, the Supplementary Table 1c: Emax, %WT, of the ET-1 concentration–response in the NanoBiT Gi-protein dissociation assay, HEK293A cells with ETBR N134A (human) was 54.6 % of WT; with ETBR S390A (human), 28.8 % of WT. The Supplementary Table 1c: Emax, %WT, of the ET-1 concentration–response in the NanoBiT Gi-protein dissociation assay, HEK293A cells; WT (35% plasmid) in assay [2] is 62.9 % of WT. The Supplementary Table 1c: Emax, %WT, of the ET-1 concentration–response in the NanoBiT Gi-protein dissociation assay, HEK293A cells; WT (50% plasmid) in assay [2] is 76.5 % of WT. In assay [2], the Supplementary Table 1c: Emax, %WT, of the ET-1 concentration–response in the NanoBiT Gi-protein dissociation assay, HEK293A cells; WT (100% plasmid) was 100 % of WT. Moreover, the Supplementary Table 1f: Emax, %WT, of the ET-1 concentration–response in the NanoBiT Gi-protein dissociation assay, HEK293A cells; WT Gαi in [2] is 100 % of WT. In [2], the Supplementary Table 1d (same row in 1e): Emax, %WT, of the ET-1 concentration–response in the NanoBiT Gi-protein dissociation assay, HEK293A cells; WT (100% plasmid) is 100 % of WT.

Source of the values: article PMC11484851, “Structure of endothelin ETB receptor–Gi complex in a conformation stabilized by unique NPxxL motif” (Communications Biology, 2024).
